This experiment deals with eIF2β of rabbit reticulocyte lysate (rabbit (endogenous in reticulocyte lysate)) (UniProt P41035).

In PMC4402527 one finds fold stimulation of m7GpppG-Bcl2 5′UTR-FL-poly(A)35 mRNA (25 ng) translation in nuclease treated RRL by 1.6 pmol protein (luciferase) data, which are given here for two molecules.

Chain of UniProt P41035 (P41035 whole entry): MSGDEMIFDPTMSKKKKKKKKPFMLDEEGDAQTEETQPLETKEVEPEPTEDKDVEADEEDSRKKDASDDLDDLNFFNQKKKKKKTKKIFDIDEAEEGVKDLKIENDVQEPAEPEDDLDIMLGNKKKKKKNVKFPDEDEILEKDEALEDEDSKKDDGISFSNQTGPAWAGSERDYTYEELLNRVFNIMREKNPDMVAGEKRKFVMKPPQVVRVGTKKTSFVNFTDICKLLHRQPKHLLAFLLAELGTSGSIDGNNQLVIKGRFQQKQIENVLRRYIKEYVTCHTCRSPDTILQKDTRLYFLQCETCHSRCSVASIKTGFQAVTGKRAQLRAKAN

B1: Recombinant mutant DAP5, E862K (natural protein)
chain: MESAIAEGGASRFSASSGGGGSRGAPQHYPKTAGNSEFLGKTPGQNAQKWIPARSTRRDDNSAANNSANEKERHDAIFRKVRGILNKLTPEKFDKLCLELLNVGVESKLILKGVILLIVDKALEEPKYSSLYAQLCLRLAEDAPNFDGPAAEGQPGQKQSTTFRRLLISKLQDEFENRTRNVDVYDKRENPLLPEEEEQRAIAKIKMLGNIKFIGELGKLDLIHESILHKCIKTLLEKKKRVQLKDMGEDLECLCQIMRTVGPRLDHERAKSLMDQYFARMCSLMLSKELPARIRFLLQDTVELREHHWVPRKAFLDNGPKTINQIRQDAVKDLGVFIPAPMAQGMRSDFFLEGPFMPPRMKMDRDPLGGLADMFGQMPGSGIGTGPGVIQDRFSPTMGRHRSNQLFNGHGGHIMPPTQSQFGEMGGKFMKSQGLSQLYHNQSQGLLSQLQGQSKDMPPRFSKKGQLNADEISLRPAQSFLMNKNQVPKLQPQITMIPPSAQPPRTQTPPLGQTPQLGLKTNPPLIQEKPAKTSKKPPPSKEELLKLTETVVTEYLNSGNANEAVNGVREMRAPKHFLPEMLSKVIILSLDRSDEDKEKASSLISLLKQEGIATSDNFMQAFLNVLDQCPKLEVDIPLVKSYLAQFAARAIISELVSISELAQPLESGTHFPLFLLCLQQLAKLQDREWLTELFQQSKVNMQKMLPEIDQNKDRMLEILEGKGLSFLFPLLKLEKELLKQIKLDPSPQTIYKWIKDNISPKLHVDKGFVNILMTSFLQYISSEVNPPSDETDSSSAPSKEQLEQEKQLLLSFKPVMQKFLHDHVDLQVSALYALQVHCYNSNFPKGMLLRFFVHFYDMEIIKEEAFLAWKEDITQEFPGKGKALFQVNQWLTWLETAEEEESEEEAD
As to B1, the fold stimulation of m7GpppG-Bcl2 5′UTR-FL-poly(A)35 mRNA (25 ng) translation in nuclease treated RRL by 1.6 pmol protein (luciferase) is 1.65 fold.

B2: Recombinant human DAP5 (1–907) (natural protein)
chain: MESAIAEGGASRFSASSGGGGSRGAPQHYPKTAGNSEFLGKTPGQNAQKWIPARSTRRDDNSAANNSANEKERHDAIFRKVRGILNKLTPEKFDKLCLELLNVGVESKLILKGVILLIVDKALEEPKYSSLYAQLCLRLAEDAPNFDGPAAEGQPGQKQSTTFRRLLISKLQDEFENRTRNVDVYDKRENPLLPEEEEQRAIAKIKMLGNIKFIGELGKLDLIHESILHKCIKTLLEKKKRVQLKDMGEDLECLCQIMRTVGPRLDHERAKSLMDQYFARMCSLMLSKELPARIRFLLQDTVELREHHWVPRKAFLDNGPKTINQIRQDAVKDLGVFIPAPMAQGMRSDFFLEGPFMPPRMKMDRDPLGGLADMFGQMPGSGIGTGPGVIQDRFSPTMGRHRSNQLFNGHGGHIMPPTQSQFGEMGGKFMKSQGLSQLYHNQSQGLLSQLQGQSKDMPPRFSKKGQLNADEISLRPAQSFLMNKNQVPKLQPQITMIPPSAQPPRTQTPPLGQTPQLGLKTNPPLIQEKPAKTSKKPPPSKEELLKLTETVVTEYLNSGNANEAVNGVREMRAPKHFLPEMLSKVIILSLDRSDEDKEKASSLISLLKQEGIATSDNFMQAFLNVLDQCPKLEVDIPLVKSYLAQFAARAIISELVSISELAQPLESGTHFPLFLLCLQQLAKLQDREWLTELFQQSKVNMQKMLPEIDQNKDRMLEILEGKGLSFLFPLLKLEKELLKQIKLDPSPQTIYKWIKDNISPKLHVDKGFVNILMTSFLQYISSEVNPPSDETDSSSAPSKEQLEQEKQLLLSFKPVMQKFLHDHVDLQVSALYALQVHCYNSNFPKGMLLRFFVHFYDMEIIEEEAFLAWKEDITQEFPGKGKALFQVNQWLTWLETAEEEESEEEAD
In turn, B2 had a fold stimulation of m7GpppG-Bcl2 5′UTR-FL-poly(A)35 mRNA (25 ng) translation in nuclease treated RRL by 1.6 pmol protein (luciferase) of 4 fold.
